# In US20260265403A1 (TJ BIOPHARMA SHANGHAI, published 2026):
# Positions count from the first letter of the chain named.
# B1: 85-D5A10 (4434), IgG4, Kappa (antibody, V domains shown)
# VH: EVQLQQSGPELVKPGASVKISCKASGYEFTGYHMNWVKQSPEKSLEWIGEINPITSDKTFNQKFKAKATLTVDRSSSTAYMHLKSLTSDDSAVYYCARRDYGTSLDYWGQGTTLTVSS
# VL: DVQITQSPSYLAASPGETITIYCRASKSISKYLAWYQEKPEKTIRLLIYAGSTLQSGIPSRFRGSGSGKDFTLTVSGLEPEDFAMYYCQQHNEYPITFGAGTKLELI
# B2: 74-H4C6 (4451), IgG4, Kappa (antibody, V domains shown)
# VH: B1 VH with E28D, A66S, H82Y, D89E
# VL: B1 VL with I44N, Q55H, I107K
# B3: 89-E8C12 (4428), IgG4, Kappa (antibody, V domains shown)
# VH: B1 VH with E28D, H33Y, V37M, D57H, K58N, D89E
# VL: B1 VL with K69T, I96L, I107K
# B4: 4451HM15-IgG1-3A (antibody, V domains shown)
# VH: QVQLVQSGAEVKKPGASVKVSCKASGYDFTGYHMGWVRQAPGQGLEWMGEINPITSDKYFNQKFKSRVTMTRDTSISTAYMELSRLRSDDTAVYYCARRDYGTSLDYWGQGTTVTVSS
# VL: DIQLTQSPSFLSASVGDRVTITCRASASISKYLAWYQQKPGKAPKLLIYAGSTLHSGIPSRFRGSGSGTEFTLTISSLQPEDFATYYCQQHNEYPITFGQGTKLEIKR
# notes: Produced in a CHO-based system
# B5: VH1 + VL3 (4451H) (antibody, V domains shown)
# VH: B4 VH with G35N, Y59T
# VL: DIQLTQSPSFLSASVGDRVTITCRASKSISKYLAWYQQKPGKAPKLLIYAGSTLHSGIPSRFRGSGSGTEFTLTISSLQPEDFATYYCQQHNEYPITFGQGTKLEIK
# notes: also called Antibody No 0; Parental
# B6: 4451H-IgG4 (antibody, V domains shown)
# VH: B4 VH with G35N, Y59T
# VL: B5 VL
# notes: also called VH1+VL3 fused with human IgG4 Fc
# B7: 4451HM15-IgG4 (antibody, V domains shown)
# VH: B4 VH
# VL: B5 VL with K27A
# notes: IgG4; also called IgG4 isoform of 4451HM15
# What was measured:
# human CD24 on cells [1] = target: T1, human CD24 on cells (human, UniProt P25063 27-59); test: cell-based or functional assay
# T1 chain (looked up): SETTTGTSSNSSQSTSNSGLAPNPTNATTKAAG
# human CD24 on cells [2] = target: T1, human CD24 on cells; test: flow cytometry (MFI), NALM6 cells [Cont'd) B]
# human CD24 on cells [3] = target: T1, human CD24 on cells; test: flow cytometry (MFI), MCF-7 cells [Cont'd) B]
# human CD24 on cells [4] = target: T1, human CD24 on cells; test: flow cytometry (GMFI), NALM6 cells
# Procedure: (§1) Antibodies were 4-fold serially diluted from 40 μg/mL and incubated with MCF7 cells (panel A), OVCAR3 cells (panel B), A549 cells (panel C), and NALM6 cells (panel D) cells for 30 minutes at 4° C. in FACS buffer. Then, PE conjugated-anti-human IgG (H+L) antibody was added and incubated for another 30 minutes. After washing, geometric mean fluorescence intensity (GMFI) of PE was evaluated by FACS.
# (§2) Here we used four CD24 highly expressed tumor cell lines MCF7 (breast cancer), OVCAR3 (ovarian cancer), A549 (lung cancer), and NALM6 ([…]).
# human CD24 on cells [5] = target: T1, human CD24 on cells; test: flow cytometry on MCF7, OVCAR3, A549 and NALM6 cells
# Procedure: as §1, §2
# CD24-his protein [6] = target: T2, CD24-his protein (human, UniProt P25063 27-59, posttranslational modification (purified from mammalian cell)); test: standard ELISA on CD24-his
# T2 construct: Purified from mammalian (HEK293) cells; also called soluble recombinant CD24 protein; human HEK293 purified CD24-his protein; not shown: His tag
# T2 chain (looked up): T1 chain (looked up)
# Excerpt: (§3) Since human CD24 contains only 33 core amino acids, and is heavily glycosylated, two different proteins were used to perform protein binding assay. CD24-his protein was purified from mammalian cell and as modified by posttranslational modification. While CD24-GST was purified from E. coli with no PTM.
# CD24-his protein [7] = target: T2, CD24-his protein; test: ELISA, CD24-his (HEK 293), unit taken from the concentration axis
# Excerpt: as §3
# human CD24 on cells [8] = target: T1, human CD24 on cells; test: flow cytometry (GMFI), MCF-7 cells
# Procedure: as §1, §2
# human CD24 on cells [9] = target: T1, human CD24 on cells; test: cell-based or functional assay
# human CD24 on cells [10] = target: T1, human CD24 on cells; test: flow cytometry (GMFI), OVCAR3 cells
# Procedure: as §1, §2
# human CD24 on cells [11] = target: T1, human CD24 on cells; test: flow cytometry (GMFI), A549 cells
# Procedure: as §1, §2
# Human CD24 [12] = target: T3, Human CD24 (human, UniProt P25063 27-59, limits assumed); test: affinity ranking; antibody as ligand, Human CD24 as analyte
# T3 chain (looked up): T1 chain (looked up)
# human CD24 on cells [13] = target: T1, human CD24 on cells; test: flow cytometry (GMFI), MCF-7 cells; EC50 table under the graphs
# Human CD24 [14] = target: T3, Human CD24; test: SPR, second 1:1 binding column set
# Human CD24 [15] = target: T3, Human CD24; test: SPR affinity ranking, 1:1 binding, analyte conc. 19.71 nM
# human CD24 on cells [16] = target: T1, human CD24 on cells; test: flow cytometry (GMFI), SKOV3 cells; EC50 table under the graphs [Cont'd) B]
# Human CD24 [17] = target: T3, Human CD24; test: Biacore (SPR); antibody as ligand, human CD24 as analyte
# CD24-his-GST(Ecoli) = target: T4, CD24-his-GST(Ecoli); test: ELISA, CD24-his-GST(Ecoli) [Cont'd) B]
# T4 construct: also called CD24-GST
# T4 chain: T1 chain (looked up)
# human CD24 on cells [18] = target: T1, human CD24 on cells; test: flow cytometry (GMFI), MCF-7 cells
# human CD24 on cells [19] = target: T1, human CD24 on cells; test: flow cytometry (GMFI), NALM6 cells
# human CD24 on cells [20] = target: T1, human CD24 on cells; test: flow cytometry (GMFI), MCF-7 cells [Cont'd) C]
# human CD24 on cells [21] = target: T1, human CD24 on cells; test: Siglec10-PE competition assay (GMFI); competitor Siglec-10; CD24 source not named on the sheet [Cont'd) D]
# CD24-his protein [22] = target: T2, CD24-his protein; test: ELISA, CD24-his(HEK 293) [Cont'd) B]
# human CD24 on cells [23] = target: T1, human CD24 on cells; test: flow cytometry (GMFI), MC38-hCD24 cells [Cont'd) C]
# CD24-his protein [24] = target: T2, CD24-his protein; test: Siglec10-PE competition assay (gMFI on the sheet); legend: Siglec-10-his-Biotin mixed with the antibody, plate coated with CD24 protein
# Procedure: Samples were washed three times with washing buffer. And then signal was tested.
# CD24-his protein was firstly coated in 96-well plate overnight.
binder,measurement,setting,value
B1,"EC50 of Phagocytosis assay, IgG4, Kappa; HEK293-CD24",human CD24 on cells [1],0.42 µg/mL
same,"EC50 of Phagocytosis assay, IgG4, Kappa; MCF-7",human CD24 on cells [1],0.43 µg/mL
same,"EC50 of Phagocytosis assay, IgG4, Kappa; NALM6",human CD24 on cells [1],0.47 µg/mL
same,"EC50 of Phagocytosis assay, IgG4, Kappa; OVCAR3",human CD24 on cells [1],0.38 µg/mL
same,EC50 (read off the curve),human CD24 on cells [2],~0.4 µg/mL
same,EC50 (read off the curve),human CD24 on cells [3],~0.4 µg/mL
B2,"EC50 of Phagocytosis assay, IgG4, Kappa; HEK293-CD24",human CD24 on cells [1],0.44 µg/mL
same,"EC50 of Phagocytosis assay, IgG4, Kappa; MCF-7",human CD24 on cells [1],0.74 µg/mL
same,"EC50 of Phagocytosis assay, IgG4, Kappa; NALM6",human CD24 on cells [1],0.32 µg/mL
same,"EC50 of Phagocytosis assay, IgG4, Kappa; OVCAR3",human CD24 on cells [1],0.16 µg/mL
same,EC50 (read off the curve),human CD24 on cells [2],~0.4 µg/mL
B3,"EC50 of Phagocytosis assay, IgG4, Kappa; HEK293-CD24",human CD24 on cells [1],0.43 µg/mL
same,"EC50 of Phagocytosis assay, IgG4, Kappa; MCF-7",human CD24 on cells [1],0.96 µg/mL
same,"EC50 of Phagocytosis assay, IgG4, Kappa; NALM6",human CD24 on cells [1],0.57 µg/mL
same,"EC50 of Phagocytosis assay, IgG4, Kappa; OVCAR3",human CD24 on cells [1],0.16 µg/mL
same,EC50 (read off the curve),human CD24 on cells [2],~0.5 µg/mL
B4,EC50 (read off the curve),human CD24 on cells [4],~0.3 µg/mL
same,EC50,human CD24 on cells [5],1.2 to 2.11 nM
same,EC50,CD24-his protein [6],10.1 µg/mL
same,EC50,CD24-his protein [7],0.0101 µg/mL
same,EC50 (read off the curve),human CD24 on cells [8],~0.2 µg/mL
same,EC50 of macrophage mediated phagocytosis against multiple tumor cells,human CD24 on cells [9],1.97 to 2.45 nM
same,EC50 (read off the curve),human CD24 on cells [10],~0.3 µg/mL
same,EC50 (read off the curve),human CD24 on cells [11],~0.2 µg/mL
B5,apparent Kd (pooled screen),Human CD24 [12],23.1 nM
same,apparent koff (pooled screen),Human CD24 [12],0.0158 s⁻¹
same,apparent kon (pooled screen),Human CD24 [12],685000 M⁻¹ s⁻¹
same,EC50,human CD24 on cells [13],0.39 µg/mL
same,apparent Kd (pooled screen),Human CD24 [14],25.1 nM
same,apparent koff (pooled screen),Human CD24 [14],0.0192 s⁻¹
same,apparent kon (pooled screen),Human CD24 [14],763000 M⁻¹ s⁻¹
same,apparent Kd (pooled screen),Human CD24 [15],172 nM
same,apparent koff (pooled screen),Human CD24 [15],0.0275 s⁻¹
same,apparent kon (pooled screen),Human CD24 [15],160000 M⁻¹ s⁻¹
same,EC50,human CD24 on cells [16],0.44 µg/mL
B6,Kd,Human CD24 [17],15.5 nM
same,koff,Human CD24 [17],0.0175 s⁻¹
same,kon,Human CD24 [17],1.13e+06 M⁻¹ s⁻¹
same,EC50 (read off the curve),CD24-his-GST(Ecoli),~0.06 µg/mL
same,EC50 (read off the curve),human CD24 on cells [18],~0.2 µg/mL
same,EC50 (read off the curve),human CD24 on cells [19],~0.3 µg/mL
same,EC50 (read off the curve),human CD24 on cells [20],~0.2 µg/mL
same,IC50 (read off the curve),human CD24 on cells [21],~1 µg/mL
same,EC50 (read off the curve),CD24-his protein [22],~0.02 µg/mL
same,EC50 (read off the curve),human CD24 on cells [23],~0.2 µg/mL
B7,IC50 (read off the curve),CD24-his protein [24],~1 µg/mL
